The numbers were not newly measured in PMC7930624, which cites them from elsewhere.

Several values for one entry are separate records, joined by “and”; a condition that tells them apart may be missing. Equal values may be shown once.

The data set deals with ACE2 (Homo sapiens) (UniProt Q9BYF1).
ACE2 (Homo sapiens), sequence (Q9BYF1 18-740): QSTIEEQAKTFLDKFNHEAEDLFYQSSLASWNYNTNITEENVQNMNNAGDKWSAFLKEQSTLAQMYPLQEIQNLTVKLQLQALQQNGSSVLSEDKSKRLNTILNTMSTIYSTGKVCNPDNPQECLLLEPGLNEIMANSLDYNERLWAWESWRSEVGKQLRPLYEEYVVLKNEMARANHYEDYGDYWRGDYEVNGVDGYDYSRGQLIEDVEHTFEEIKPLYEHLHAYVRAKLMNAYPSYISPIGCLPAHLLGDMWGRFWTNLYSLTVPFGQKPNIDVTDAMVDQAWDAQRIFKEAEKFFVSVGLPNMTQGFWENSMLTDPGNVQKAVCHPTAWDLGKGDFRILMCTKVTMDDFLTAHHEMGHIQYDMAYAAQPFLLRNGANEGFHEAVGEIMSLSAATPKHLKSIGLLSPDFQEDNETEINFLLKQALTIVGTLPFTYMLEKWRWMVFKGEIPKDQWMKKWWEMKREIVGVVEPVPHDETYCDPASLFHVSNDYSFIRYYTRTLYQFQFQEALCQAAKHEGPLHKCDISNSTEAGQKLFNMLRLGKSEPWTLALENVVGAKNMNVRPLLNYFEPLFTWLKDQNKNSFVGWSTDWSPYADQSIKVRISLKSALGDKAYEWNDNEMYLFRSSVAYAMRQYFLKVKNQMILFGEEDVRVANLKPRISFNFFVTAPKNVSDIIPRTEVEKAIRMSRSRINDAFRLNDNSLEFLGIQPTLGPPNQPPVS

Human defensin-5, sequence (Q01523 63-94): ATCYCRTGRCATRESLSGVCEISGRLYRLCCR

In general, Kd refers to the concentration at which binding is half-saturated. With Human defensin-5 (from UniProt Q01523), the Kd was 39.3 nM and 76.2 nM.
